The target in test [1] is T1, human 5T4 on the cell surface (human, UniProt Q13641 32-420).
T1 construct: whole, on cells; also called h5T4; TPBG
T1 sequence (looked up): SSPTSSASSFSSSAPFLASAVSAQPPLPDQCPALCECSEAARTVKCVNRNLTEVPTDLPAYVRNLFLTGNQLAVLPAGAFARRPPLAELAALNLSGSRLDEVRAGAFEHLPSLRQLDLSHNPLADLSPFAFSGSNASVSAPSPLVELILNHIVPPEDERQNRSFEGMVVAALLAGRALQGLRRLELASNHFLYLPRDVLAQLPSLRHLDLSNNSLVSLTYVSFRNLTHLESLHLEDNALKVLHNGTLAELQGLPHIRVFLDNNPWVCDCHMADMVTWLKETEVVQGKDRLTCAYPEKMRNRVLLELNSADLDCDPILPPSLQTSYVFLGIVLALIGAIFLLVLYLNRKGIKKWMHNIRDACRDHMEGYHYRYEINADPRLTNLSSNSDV
Kind of test: flow cytometry on 786-O cells (18,000 5T4 per cell). In general terms: In flow cytometry, cells or beads pass a laser one at a time.

Test [2] addresses T1, human 5T4 on the cell surface. Kind of test: flow cytometry on H1703 cells (15,000 5T4 per cell).
The target is the same in test [3]. Kind of test: flow cytometry on primary lung cancer-associated fibroblasts (Donor #377913A1), fold over background.
Test [4] concerns the target T2, human 5T4 (SPR and epitope mapping, construct not stated) (human, UniProt Q13641 32-355, limits assumed).
T2 construct: also called h5T4
T2 sequence (looked up): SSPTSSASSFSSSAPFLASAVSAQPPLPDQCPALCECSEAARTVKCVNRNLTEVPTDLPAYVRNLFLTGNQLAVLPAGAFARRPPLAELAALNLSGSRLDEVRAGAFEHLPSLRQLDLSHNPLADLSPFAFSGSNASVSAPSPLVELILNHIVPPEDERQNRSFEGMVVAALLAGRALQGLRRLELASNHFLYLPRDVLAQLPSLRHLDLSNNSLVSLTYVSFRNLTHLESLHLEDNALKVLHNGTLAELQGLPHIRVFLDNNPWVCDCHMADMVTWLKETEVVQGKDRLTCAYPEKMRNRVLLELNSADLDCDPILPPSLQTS
Kind of test: SPR. As for the experimental part: (§1) Briefly, SPR was performed using a Biacore 8K instrument at physiological temperature of 37° C. Briefly, human Fc specific antibodies were covalently immobilized at a density of about 8000-10000 resonance units (RU) on carboxy methyl dextran matrix of a CM5 biosensor chip to create an anti-hFc IgG chip. Samples were injected on the anti-hFc IgG chip at a flow rate of 10 μL/min for 60 seconds. Protein was serially diluted (300 nM-0.14 nM) in three-fold dilutions with running buffer and injected at a flow rate of 30 μl/min over the captured test articles. Association was monitored for 240-300 seconds, and dissociation was monitored for 300-900 seconds. Surfaces were regenerated between cycles with three pulses of 10 mM glycine-HCl (pH 1.7) injected for 20 seconds at 100 μL/min.

The next test addresses T3, cynomolgus 5T4 (cynomolgus monkey, UniProt Q4R8Y9 32-355, limits assumed).
T3 construct: also called Cynomolgus monkey 5T4
T3 sequence (looked up): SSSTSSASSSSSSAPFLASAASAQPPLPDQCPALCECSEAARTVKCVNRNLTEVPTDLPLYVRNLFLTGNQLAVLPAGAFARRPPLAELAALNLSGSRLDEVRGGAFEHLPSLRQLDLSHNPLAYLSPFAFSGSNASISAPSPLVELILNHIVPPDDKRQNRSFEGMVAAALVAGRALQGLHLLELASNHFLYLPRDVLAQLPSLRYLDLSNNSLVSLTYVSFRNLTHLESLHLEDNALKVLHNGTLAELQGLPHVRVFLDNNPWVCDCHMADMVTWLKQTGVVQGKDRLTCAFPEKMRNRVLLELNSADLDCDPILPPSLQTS
Kind of test: SPR. As for the experimental part: as §1
On the technique in general: Surface plasmon resonance follows binding to a sensor surface in real time, without labels.

Test [5] addresses T1, human 5T4 on the cell surface. Kind of test: cell binding assay on 5T4-expressing tumor cells (cell line not given).

This is an account of results in patent US20230203202A1 (DRAGONFLY THERAPEUTICS, published 2023).

B1: AB1310/AB1783-TriNKET® (bispecific antibody, human IgG1, kappa)
chain: DIQLTQSPSSLSASVGDRVTITCRASQSVTTSNYNYMHWFQQKPGKAPKLLIKFASNLESGVPSRFSGSGSGTDFTLTISSLQPEDFATYYCQHSWEIPWTFGCGTKVEIKGGGGSGGGGSGGGGSGGGGSEVQLVESGGGLVKPGGSLRLSCAASRFTFSDFGMHWVRQAPGKCLEWVSYISSGSSTIYYADSVKGRFTISRDNAKNSLYLQMNSLRAEDTAVYYCASSQSYYRGTLDYWGQGTTVTVSSASDKTHTCPPCPAPELLGGPSVFLFPPKPKDTLMISRTPEVTCVVVDVSHEDPEVKFNWYVDGVEVHNAKTKPREEQYNSTYRVVSVLTVLHQDWLNGKEYKCKVSNKALPAPIEKTISKAKGQPREPRVYTLPPCRDELTKNQVSLTCLVKGFYPSDIAVEWESNGQPENNYKTTPPVLVSDGSFTLYSKLTVDKSRWQQGNVFSCSVMHEALHNHYTQKSLSLSPG
heavy: EVQLVESGGGLVKPGGSLRLSCAASGFTFSSYSMNWVRQAPGKGLEWVSSISSSSSYIYYADSVKGRFTISRDNAKNSLYLQMNSLRAEDTAVYYCARGAPIGAAAGWFDPWGQGTLVTVSSASTKGPSVFPLAPSSKSTSGGTAALGCLVKDYFPEPVTVSWNSGALTSGVHTFPAVLQSSGLYSLSSVVTVPSSSLGTQTYICNVNHKPSNTKVDKKVEPKSCDKTHTCPPCPAPELLGGPSVFLFPPKPKDTLMISRTPEVTCVVVDVSHEDPEVKFNWYVDGVEVHNAKTKPREEQYNSTYRVVSVLTVLHQDWLNGKEYKCKVSNKALPAPIEKTISKAKGQPREPQVCTLPPSRDELTENQVSLTCLVKGFYPSDIAVEWESNGQPENNYKTTPPVLDSDGSFFLYSWLTVDKSRWQQGNVFSCSVMHEALHNHYTQKSLSLSPG
light: DIQMTQSPSSVSASVGDRVTITCRASQGISSWLAWYQQKPGKAPKLLIYAASSLQSGVPSRFSGSGSGTDFTLTISSLQPEDFATYYCQQGVSFPRTFGGGTKVEIKRTVAAPSVFIFPPSDEQLKSGTASVVCLLNNFYPREAKVQWKVDNALQSGNSQESVTEQDSKDSTYSLSSTLTLSKADYEKHKVYACEVTHQGLSSPVTKSFNRGEC
notes: also called AB1310-TriNKET®; AB1783 10F10 F3′ LH H(T62S) CHO opt
As a reminder, the EC50 is the concentration that produces a half-maximal response. By EC50 (read off the curve) is commonly meant the concentration that produces a half-maximal response. What is called Kd is the concentration at which binding is half-saturated. For B1, the EC50 amounted to 2.7 nM in test [1], 2.6 nM in test [2] and 5.33 nM in test [5]. Besides, the “EC50 (read off the curve)” value in test [3] was about 4 nM. For the same molecule, the figures for the Kd (in test [4]; in the test with cynomolgus 5T4) were 6.2 nM and 8.3 nM, respectively. Moreover, the “Max Fold Over Background (FOB)” value in test [5] came out at 85 fold over background.
